Source: patent US11835506 (RADIUS HEALTH, dated 2023)

Target: PTH receptors
Assay: cell-based or functional assay

| EC50, production of cAMP in a cell base potency assay for functional PTH activity [ng/mL] | Binder |
| --- | --- |
| 3.3 | AVSEHQLLHXKGKSIQDLRRRELLEKLLXKLHTA (beta-Asp at position 10; Aib (2-aminoisobutyric acid) at position 29; C-terminal amide (NH2)) [(beta-Asp10) abaloparatide ([b-Asp10, Glu22,25, Leu23,28,31, Aib29, Lys26,30]hPTHrP(1-34)NH2)] |
| 0.325 | AVSEHQLLHDKGKSIQDLRRRELLEKLLXKLHTA (Aib (2-aminoisobutyric acid) at position 29; C-terminal amide (NH2)) [abaloparatide ([Glu22,25, Leu23,28,31, Aib29, Lys26,30]hPTHrP(1-34)NH2)] |
